Results: publication PMC4388271 (Acta Crystallographica Section D: Biological Crystallography, 2015)

Assays:
[1] = target: T1, YpTesB (TesB acyl-CoA thioesterase from Y. pestis) (Yersinia pestis, UniProt A0A3N4BCC7); conditions: 2.2 A; crystals grown with 1 mM octanoyl-CoA, sodium malonate pH 7.0; CoA between two adjacent chains, in two of four sites
[2] = target: T1, YpTesB (TesB acyl-CoA thioesterase from Y. pestis); conditions: 100 mM phosphate pH 8.0, 0.1 mM DTNB
[3] = target: TesB acyl-CoA thioesterase from Yersinia pestis (Yersinia pestis); assay: crystal structure
[4] = target: TesB acyl-CoA thioesterase from Yersinia pestis (Yersinia pestis); assay: SEC
[5] = target: TesB acyl-CoA thioesterase from Yersinia pestis (Yersinia pestis); assay: small-angle X-ray scattering (SAXS)
[6] = target: TesB acyl-CoA thioesterase from Yersinia pestis (Yersinia pestis); assay: AUC

Molecule: CC(C)(COP(=O)(O)OP(=O)(O)OC[C@H]1O[C@@H](n2cnc3c(N)ncnc32)[C@H](O)[C@@H]1OP(=O)(O)O)[C@@H](O)C(=O)NCCC(=O)NCCS [CoA]
- X-ray crystallography [1]: revealing the same quaternary arrangement of domains as the apo form with density for two CoA molecules

Molecule: CCCCCCCCCC(=O)SCCNC(=O)CCNC(=O)[C@H](O)C(C)(C)COP(=O)(O)OP(=O)(O)OC[C@H]1O[C@@H](n2cnc3c(N)ncnc32)[C@H](O)[C@@H]1OP(=O)(O)O [C10, decanoyl-CoA]
- DTNB assay of released thiol, 412 nm [2]: The highest activity was exhibited towards medium-chain acyl-CoAs (C6–C10)

Molecule: TesB acyl-CoA thioesterase from Yersinia pestis (enzyme)
- stoichiometry N [3]: 4
- stoichiometry N [4]: 4
- stoichiometry N [5]: 4
- stoichiometry N [6]: 4
